In patent US20130059311A1, “METHOD FOR THE IDENTIFICATION OF MEMORY MODULATING COMPOUNDS BY ASSESSING KIBRA EXPRESSION” (SYGNIS BIOSCIENCE GMBH & CO KG, priority 2010, published 2013):

Columns and labels:
[1] = system: KIBRA (KIdney BRAin protein)
PKC zeta = target: T1, PKC zeta (Homo sapiens, UniProt Q05513); test: PKC zeta kinase activity assay on pulldowns from COS cells; format: biochemical; conditions: pulldowns from COS cells over-expressing PKC zeta and KIBRA vs PKC zeta alone
T1 construct: expressed in transfected cells; host or cells: COS cells
T1 sequence (Q05513 1-592): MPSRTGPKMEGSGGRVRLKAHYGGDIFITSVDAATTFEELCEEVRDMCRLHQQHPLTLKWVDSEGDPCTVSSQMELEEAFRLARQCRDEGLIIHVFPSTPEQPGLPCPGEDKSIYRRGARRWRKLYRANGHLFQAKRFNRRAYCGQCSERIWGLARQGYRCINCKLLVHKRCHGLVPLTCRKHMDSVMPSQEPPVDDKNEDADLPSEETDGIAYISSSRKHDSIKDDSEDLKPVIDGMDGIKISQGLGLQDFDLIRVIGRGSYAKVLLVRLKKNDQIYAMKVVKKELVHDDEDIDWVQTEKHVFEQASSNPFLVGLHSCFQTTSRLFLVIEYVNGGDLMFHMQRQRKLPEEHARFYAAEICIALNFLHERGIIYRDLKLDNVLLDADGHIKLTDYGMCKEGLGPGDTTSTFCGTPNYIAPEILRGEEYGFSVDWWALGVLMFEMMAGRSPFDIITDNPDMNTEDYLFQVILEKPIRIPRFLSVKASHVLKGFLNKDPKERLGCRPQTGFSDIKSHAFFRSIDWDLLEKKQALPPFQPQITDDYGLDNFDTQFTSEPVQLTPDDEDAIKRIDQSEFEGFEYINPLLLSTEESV
Protocol: To investigate the impact of KIBRA on PKC zeta activity itself, PKC zeta activity were determined in an enzyme assay. The kinase activity in the assay is detected by the phosphorylation of a substrate peptide by an antibody reaction according to manufactures instruction (HTScan PKC zeta kinase assay kit, Cell Signaling Technology Inc., Danvers, Mass., USA). The antibody is detected by a lanthanide-labeled secondary antibody, which can be measured in a fluorescent plate reader.
In order to analyze PKC zeta activity with and without KIBRA, COS cells over-expressing PKC zeta alone or in combination with KIBRA were lysed and PKC zeta was pulled down with respective PKC zeta binding beads.
Previous studies have shown that PKC zeta co-immunoprecipitates with KIBRA, and immunoreactive bands for KIBRA in the western blot analysis confirmed that PKC zeta pulldowns include KIBRA protein from cells also over-expressing KIBRA. When pulldowns from cells over-expressing PKC zeta were compared to cells over-expressing both PKC zeta and KIBRA for the phosphorylation of substrate peptide in the activity assay, a strong increase of PKC zeta activity by 50% was observed. […] Analysis of the kinase activity of the truncated form confirmed that the phosphorylation of the peptide was only mediated by PKC zeta and no other kinase attached to the beads.

increase of PKC zeta activity (PKC zeta) [%] | Substance | PKC zeta kinase activity (phosphorylation of substrate peptide, HTScan PKC zeta kinase assay kit) of PKC zeta pulldowns [1]
 | protein kinase C zeta | a strong increase of PKC zeta activity by 50% was observed
50 | KIBRA: KIBRA protein over-expressed in COS cells together with PKC zeta | 
